Our source for the stoichiometry N values is article PMC9166738.

Broadly, the stoichiometry N is a count of units in the complex or per binding partner.

In assay [1] the target is Fdh3B-CodhA fusion protein with (GGGGS)1 linker (Thermococcus onnurineus NA1). Briefly: SEC; Strep-tag purified CFOR complex on a calibrated Superdex 200 10/300 GL column in buffer W, 0.5 ml/min, anaerobic; complex formed in cells and co-purified beforehand.
Assay [2] has as its target Formate dehydrogenase catalytic subunit Fdh3A with N-terminal Strep-tag (Thermococcus onnurineus NA1). The description is as above.

Turning to “CO dehydrogenase catalytic subunit CodhB (enzyme)”, the stoichiometry N in assay [1] turned out to be 2.
“Fdh3B-CodhA fusion protein with (GGGGS)1 linker” came in with a stoichiometry N in assay [2] of 1.
